What is called Kd is a measure of binding affinity in units of concentration. Read a high Kd as lower affinity.

Like-named read-outs stand apart in the source and are kept apart here.

The results in this text go back to paper doi:10.1101/262477 (bioRxiv, 2018).

For assay [1], the target named is T1, NFS1-ISD11 complex (SD), purified, His tag removed (human, UniProt Q9Y697 56-457; Q9HD34 1-91). Nature of the assay: BLI. In general terms: In BLI a coated tip is dipped into the sample, and binding shifts an interference pattern.
T1 sequence (Q9Y697 56-457, chain 1 of 2): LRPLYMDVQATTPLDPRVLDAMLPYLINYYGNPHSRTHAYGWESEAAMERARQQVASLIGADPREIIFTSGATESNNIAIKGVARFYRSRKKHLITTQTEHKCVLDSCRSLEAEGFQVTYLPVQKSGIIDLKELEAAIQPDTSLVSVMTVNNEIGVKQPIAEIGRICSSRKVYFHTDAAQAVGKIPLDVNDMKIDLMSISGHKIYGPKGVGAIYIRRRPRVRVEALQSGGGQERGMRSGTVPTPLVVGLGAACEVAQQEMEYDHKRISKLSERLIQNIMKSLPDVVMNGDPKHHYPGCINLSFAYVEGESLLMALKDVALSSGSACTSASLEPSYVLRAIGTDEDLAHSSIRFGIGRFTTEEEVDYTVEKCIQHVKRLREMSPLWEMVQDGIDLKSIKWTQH
T1 sequence (Q9HD34 whole entry, chain 2 of 2): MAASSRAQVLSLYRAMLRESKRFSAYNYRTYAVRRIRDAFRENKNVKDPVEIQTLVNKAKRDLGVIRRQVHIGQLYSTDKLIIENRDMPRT
For assay [2], the target named is T1, NFS1-ISD11 complex (SD), purified, His …. As to the kind of experiment: BLI. The source holds these as a separate data set.

B1: biotinylated human ISCU (Δ1-34), wild type (natural protein, UniProt Q9H1K1 35-167, looked up)
chain: YHKKVVDHYENPRNVGSLDKTSKNVGTGLVGAPACGDVMKLQIQVDEKGKIVDARFKTFGCGSAIASSSLATEWVKGKTVEEALTIKNTDIAKELCLPPVKLHCSMLAEDAIKAALADYKLKQEPKKGEAEKK
modifications: biotin (site not stated)
B1: the Kd in assay [1] came to 87.8 ± 7 nM; in assay [2], 160 ± 26 nM.
